Measurements taken from patent US20070025992A1 (MOCHIDA PHARMACEUTICAL, published 2007).

Assays:
[1] = biological target: T1, GPVI-Fc (fusion protein of the extracellular domain of human GPVI and the Fc fragment of human IgG1) (human, UniProt Q9HCN6 21-267); assay: SPR (BIACORE3000), GPVI-Fc immobilized on CM5 chip
T1 construct: extracellular domain; also called human soluble GPVI-Fc; GPVI-hFc; not shown: human IgG1 Fc domain from plasmid pM1304 (printed as '506 amino acids'), joined in frame through a BamHI site
T1 sequence (looked up): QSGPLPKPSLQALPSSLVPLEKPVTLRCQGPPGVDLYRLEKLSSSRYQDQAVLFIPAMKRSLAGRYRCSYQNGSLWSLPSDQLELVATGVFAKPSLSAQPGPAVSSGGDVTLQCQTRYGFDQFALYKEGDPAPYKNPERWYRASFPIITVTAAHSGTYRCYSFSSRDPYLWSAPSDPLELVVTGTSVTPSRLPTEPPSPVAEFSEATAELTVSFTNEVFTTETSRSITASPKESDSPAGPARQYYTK

[2] = biological target: T1, GPVI-Fc (fusion protein of the …); assay: ELISA on immobilized GPVI-Fc (0.25 µg/well), 20 ng purified antibody, peroxidase-labeled anti-human kappa or lambda antibody, absorbance at 450 nm
Experimental: GPVI binding activity of the purified antibody that was obtained in EXAMPLE 2 was assayed by the ELISA method that was described in EXAMPLE 2. As substitute for the culture supernatant of hybridoma in EXAMPLE 2, 20 ng of the purified anti-GPVI monoclonal human antibody prepared in EXAMPLE 2 was added, and as a control, purified human IgM (Cappel) was used.
Thus it was confirmed that the prepared antibody specifically recognizes GPVI.

B1: #2-4 antibody (anti-GPVI monoclonal human antibody produced by hybridoma clone #2-4) (antibody, V domains shown)
VH: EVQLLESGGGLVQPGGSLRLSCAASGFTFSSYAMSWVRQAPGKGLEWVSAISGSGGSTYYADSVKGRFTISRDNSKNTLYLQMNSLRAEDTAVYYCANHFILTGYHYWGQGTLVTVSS
VL: QSVLTQPPSVSAAPGQKVTISCSGSSSNIGNNYVSWYQQLPGTAPKLLIYDNNKRPSGIPDRFSGSKSGTSATLGITGLQTGDEADYYCGTWDSSLSAGVFGGGTKLTVL
Kd [1]: 41.3 nM

B2: #2-37 (antibody, V domains shown)
VH: EVQLVESGGGLVKPGGSLRLSCAASGFTFSDYYMSWIRQAPGKGLEWVSYITSSSSYTNYADSVKGRFTISRDNAKNSLYLQMNSLRAEDTAVYYCARDRAVRGVIIIRPPDYWGQGTLVTVSS
VL: QSALTQPASVSGSPGQSITISCTGTSSDVGGYNYVSWYQQHPGKAPKLMIYDVSNRPSGVSNRFSGSKSGNTASLTISGLQAEDEADYYCSSYTSSSTLVFGGGTKLTVL
notes: Human monoclonal antibody from a hybridoma; also called clone #2-37; #2-37 antibody
binding result [2]: binds
